Laboratory results from article PMC6684660, “ABCG1 contributes to suberin formation in Arabidopsis thaliana roots” (Scientific Reports, 2019).

Substrate: Nc1ncnc2c1ncn2[C@@H]1O[C@H](COP(=O)(O)OP(=O)(O)OP(=O)(O)O)[C@@H](O)[C@H]1O
Assay: malachite green ATPase assay
Format: biochemical, Arabidopsis thaliana
Conditions: ATP 0-8 mM, 10 mM MgCl2, 25 °C
Source text: malachite green ATPase assay on AtABCG1

[1] = Fos-Choline-14, EQ/HA background subtracted
[2] = Fos-Choline-14, hydrolysis-deficient mutant used as background control

Protein | Km [1] | Vmax [1] | Km [2] | Vmax [2]
AtABCG1 (Arabidopsis thaliana) (protein, full-length half-size transporter, N-terminal tag (CBP, His detected) kept, expressed in Pichia pastoris X33, purified in Fos-Choline-14, 86 kDa with tag, homodimer) MARIVAANDDDSMELNTISSIHDSTLGQLLKNVSDVRKMAIGDETPVHESLNQDYNDGYMRTVPFVLSFDNLTYNVSVRPKLDFRNLFPRRRTEDPEIAQTARPKTKTLLNNISGETRDGEIMAVLGASGSGKSTLIDALANRIAKGSLKGTVKLNGETLQSRMLKVISAYVMQDDLLFPMLTVEETLMFAAEFRLPRSLPKSKKKLRVQALIDQLGIRNAAKTIIGDEGHRGISGGERRRVSIGIDIIHDPILLFLDEPTSGLDSTSAFMVVKVLKRIAQSGSIVIMSIHQPSHRVLGLLDRLIFLSRGHTVYSGSPASLPRFFTEFGSPIPENENRTEFALDLIRELEGSAGGTRGLIEFNKKWQEMKKQSNRQPPLTPPSSPYPNLTLKEAIAASISRGKLVSGGESVAHGGATTNTTTLAVPAFANPMWIEIKTLSKRSMLNSRRQPELFGIRIASVVITGFILATVFWRLDNSPKGVQERLGFFAFAMSTMFYTCADALPVFLQERYIFMRETAYNAYRRSSYVLSHAIVSFPSLIFLSVAFAATTYWAVGLDGGLTGLLFYCLIILASFWSGSSFVTFLSGVVPSVMLGYTIVVAILAYFLLFSGFFINRNRIPDYWIWFHYMSLVKYPYEAVLQNEFSDATKCFVRGVQIFDNTPLGELPEVMKLKLLGTVSKSLGVTISSTTCLTTGSDILRQQGVVQLSKWNCLFITVAFGFFFRILFYFTLLLGSKNKRR | 1800 ± 100 µM | 0.0188 µmol/min/mg |  | 
AtABCG1 (Arabidopsis thaliana; E259Q/H291A) (protein, full-length half-size transporter, N-terminal tag (CBP, His detected) kept, expressed in Pichia pastoris X33, purified in Fos-Choline-14, 86 kDa with tag, homodimer) MARIVAANDDDSMELNTISSIHDSTLGQLLKNVSDVRKMAIGDETPVHESLNQDYNDGYMRTVPFVLSFDNLTYNVSVRPKLDFRNLFPRRRTEDPEIAQTARPKTKTLLNNISGETRDGEIMAVLGASGSGKSTLIDALANRIAKGSLKGTVKLNGETLQSRMLKVISAYVMQDDLLFPMLTVEETLMFAAEFRLPRSLPKSKKKLRVQALIDQLGIRNAAKTIIGDEGHRGISGGERRRVSIGIDIIHDPILLFLDQPTSGLDSTSAFMVVKVLKRIAQSGSIVIMSIAQPSHRVLGLLDRLIFLSRGHTVYSGSPASLPRFFTEFGSPIPENENRTEFALDLIRELEGSAGGTRGLIEFNKKWQEMKKQSNRQPPLTPPSSPYPNLTLKEAIAASISRGKLVSGGESVAHGGATTNTTTLAVPAFANPMWIEIKTLSKRSMLNSRRQPELFGIRIASVVITGFILATVFWRLDNSPKGVQERLGFFAFAMSTMFYTCADALPVFLQERYIFMRETAYNAYRRSSYVLSHAIVSFPSLIFLSVAFAATTYWAVGLDGGLTGLLFYCLIILASFWSGSSFVTFLSGVVPSVMLGYTIVVAILAYFLLFSGFFINRNRIPDYWIWFHYMSLVKYPYEAVLQNEFSDATKCFVRGVQIFDNTPLGELPEVMKLKLLGTVSKSLGVTISSTTCLTTGSDILRQQGVVQLSKWNCLFITVAFGFFFRILFYFTLLLGSKNKRR |  |  | 700 ± 400 µM | 0.0017 µmol/min/mg
